Results on one protein are retold here after article doi:10.1101/373860 (bioRxiv, 2018).

This series deals with the molecule itself. The series is described as follows: cryo-EM structure.

B1: Arabidopsis thaliana two-pore channel 1 with D240N, D454N, E528Q (AtTPC1DDE), deletion of residues 2-11 (natural protein, UniProt Q94KI8 1-733, looked up)
chain: MGGGGTDRVRRSEAITHGTPFQKAAALVDLAEDGIGLPVEILDQSSFGESARYYFIFTRLDLIWSLNYFALLFLNFFEQPLWCEKNPKPSCKDRDYYYLGELPYLTNAESIIYEVITLAILLVHTFFPISYEGSRIFWTSRLNLVKVACVVILFVDVLVDFLYLSPLAFDFLPFRIAPYVRVIIFILSIRELRDTLVLLSGMLGTYLNILALWMLFLLFASWIAFVMFENTQQGLTVFTSYGATLYQMFILFTTSNNPDVWIPAYKSSRWSSVFFVLYVLIGVYFVTNLILAVVYDSFKEQLAKQVSGMDQMKRRMLEKAFGLIDSDKNGEIDKNQCIKLFEQLTNYRTLPKISKEEFGLIFDELDDTRDFKINKDEFADLCQAIALRFQKEEVPSLFEHFPQIYHSALSQQLRAFVRSPNFGYAISFILIINFIAVVVETTLNIEESSAQKPWQVAEFVFGWIYVLEMALKIYTYGFENYWREGANRFDFLVTWVIVIGETATFITPDENTFFSNGQWIRYLLLARMLRLIRLLMNVQRYRAFIATFITLIPSLMPYLGTIFCVLCIYCSIGVQVFGGLVNAGNKKLFETELAEDDYLLFNFNDYPNGMVTLFNLLVMGNWQVWMESYKDLTGTWWSITYFVSFYVITILLLLNLVVAFVLEAFFTELDLEEEEKCQGQDSQEKRNRRRSAGSKSRSQRVDTLLHHMLGDELSKPECSTSDT
On to B1, for which the “stoichiometry N” value was determined as 2.

One may read the stoichiometry N as a count of units in the complex or per binding partner.
